For assay [1], the target named is T1, WT β-catenin_(41–49) peptide on HLA-A3 of T2A3 cells (Homo sapiens, HLA-A*03:01, UniProt P04439;P61769).
T1 construct: HLA-A3 stably transfected in T2A3 cells; human β2-microglobulin (ProSpec) added at pulsing; β-catenin amino acids 41-49; also called WT peptide-pulsed T2A3 cells; copies: + +
As to the kind of experiment: flow cytometry on cells; T2A3 cells pulsed with peptide and β2-microglobulin, stained with ~1 × 10^10 phage for 1 h on ice; anti-M13 and PE anti-rabbit. As to conditions: partners not purified. (A flow cytometer gives signals particle by particle.)

The target of assay [2] is T1, WT β-catenin_(41–49) peptide on HLA-A3 …. The assay can be described thus: flow cytometry on cells; T2A3 cells pulsed with peptide and β2-microglobulin, stained with 1 μg scFv in 100 μl for 1 h on ice; PE anti-DYKDDDDK
As to conditions: one partner purified.

B1: E10 phage clone (scFv displayed on M13 phage) (scFv, V domains shown)
VH: EVQLVESGGGLVQPGGSLRLSCAASGFNINNTYIHWVRQAPGKGLEWVASIYPTDGYTRYADSVKGRFTISADTSKNTAYLQMNSLRAEDTAVYYCSRTYYSYYSAMDVWGQGTLVTVSS
VL: DIQMTQSPSSLSASVGDRVTITCRASQDVNTAVAWYQQKPGKAPKLLIYSASFLYSGVPSRFSGSRSGTDFTLTISSLQPEDFATYYCQQSYYSPPTFGQGTKVEIK
notes: scFv from the first library on the humanized 4D5 framework (CDRs L3, H1, H2, H3 varied); source: phage display, amplified in SS320 E. coli with M13K07 helper phage
Take B1: the binding result in assay [1] is given as “no binding”.

B2: E10 scFv with C-terminal FLAG tag (scFv, V domains shown)
VH: EVQLVESGGGLVQPGGSLRLSCAASGFNINNTYIHWVRQAPGKGLEWVASIYPTDGYTRYADSVKGRFTISADTSKNTAYLQMNSLRAEDTAVYYCSRTYYSYYSAMDVWGQGTLVTVSS
VL: DIQMTQSPSSLSASVGDRVTITCRASQDVNTAVAWYQQKPGKAPKLLIYSASFLYSGVPSRFSGSRSGTDFTLTISSLQPEDFATYYCQQSYYSPPTFGQGTKVEIK
notes: as the scFv of m19; source: E. coli, produced by AxioMx
For B2, the binding result in assay [2] is “no binding”.

B3: clone 7 phage clone (scFv displayed on M13 phage) (scFv, V domains shown)
VH: EVQLVESGGGLVQPGGSLRLSCAASGFNVWSYGIHWVRQAPGKGLEWVAGVTPDGSYTYYADSVKGRFTISADTSKNTAYLQMNSLRAEDTAVYYCSRSYGWAMDYWGQGTLVTVSS
VL: DIQMTQSPSSLSASVGDRVTITCRASQDVNTAVAWYQQKPGKAPKLLIYSASFLYSGVPSRFSGSRSGTDFTLTISSLQPEDFATYYCQQQYAYTPITFGQGTKVEIK
notes: scFv from the second library on the humanized 4D5 framework (CDRs L2, L3, H1, H2, H3 varied); also called cl; source: phage display, amplified in SS320 E. coli with M13K07 helper phage
In the case of B3, in assay [1], the binding result was “no binding”.

B4: clone 7 scFv with C-terminal FLAG tag (scFv, V domains shown)
VH: EVQLVESGGGLVQPGGSLRLSCAASGFNVWSYGIHWVRQAPGKGLEWVAGVTPDGSYTYYADSVKGRFTISADTSKNTAYLQMNSLRAEDTAVYYCSRSYGWAMDYWGQGTLVTVSS
VL: DIQMTQSPSSLSASVGDRVTITCRASQDVNTAVAWYQQKPGKAPKLLIYSASFLYSGVPSRFSGSRSGTDFTLTISSLQPEDFATYYCQQQYAYTPITFGQGTKVEIK
notes: as the scFv of m22; also called cl; source: E. coli, produced by AxioMx
As for B4, the binding result in assay [2] is recorded as “no binding”.

Source of the values: PMC6916501 (The Journal of Biological Chemistry, 2019).
